Columns and labels:
LRP1 CR3-5 = biological target: T1, LRP1 CR3-5 (Homo sapiens, UniProt Q07954); experiment: Solid phase binding assay
T1 construct: made in house; host or cells: E. coli BL21(DE3) CodonPlus-RIPL, pET30(+)a
Method: All expression constructs were sequenced to verify insert sequences and the junctions with the expression vector. Each plasmid was then used to transform BL21(DE3) CodonPlus-RIPL™ cells (Stratagene). Expression of the CR proteins was induced in logarithmic growth-phase cells grown in LB supplemented with 34 μg/mL chloramphenicol, 12.5 μg/mL tetracycline and 15 μg/mL kanamycin by addition of 2 mM IPTG, followed by reduction in incubator temperature to 32° C. and incubation for 4 hours with agitation at […]. Cells were pelleted and resuspended, at 3.5% of the initial culture volume in 10 mM Tris-HCl pH 8, 100 mM NaH2PO4, 8M Urea. Resuspended cells were then frozen in liquid nitrogen, rapidly thawed to 37° C. and sonicated for 10 seconds at an amplitude setting of 60 using a Cole-Parmer CP-130 ultrasonic processor connected to a 3 mm probe. This procedure was repeated three times to effect complete lysis of the cells. Lysates were clarified by spinning twice at 10,000×g in a Sorvall RC-5 centrifuge for 20 minutes at 15° C. Ni-NTA columns (Qiagen Superflow™, 1.5 mL packed bed) were used to purify the CR proteins. Briefly, the resin was equilibrated with two column volumes of lysis buffer. The clarified lysate was then supplemented to 20 mM with imidazole and incubated with the equilibrated Ni-NTA resin overnight at 4° C. The flow-through was discarded. Columns were washed once with one column volume of lysis buffer and then three times with one column volume of TBS pH 8 supplemented with 20 mM imidazole. CR-loaded beads were then removed from the column and CR proteins eluted by incubating at room temperature for 30 minutes with one column volume of the same buffer containing 200 mM imidazole. This step was repeated once and the eluates pooled. Eluted CR protein solutions were then supplemented to 2 M urea, 10 mM CaCl2 and 5 mM DTT. Purified, denatured CR protein solutions were transferred to 3,500 MWCO Slide-A-Lyzer™ (Pierce) cassettes and sequentially dialyzed against a 200-fold excess of 50 mM Tris-HCl pH 8.5, 10 mM CaCl2, 1 mM reduced glutathione, 0.5 mM oxidized glutathione at room temperature overnight and then against TBS supplemented with 5 mM CaCl2 at 4° C. overnight. Protein concentrations were determined by Bradford assay and purity confirmed by SDS-PAGE with Coomassie Brilliant Blue staining.
(§1) Purified, refolded CR protein (1 μg) was bound to Nunc Maxisorp™ 96-well plates in TBS pH 8 supplemented with 5 mM CaCl2 (TBSC) overnight at 4° C. Wells were washed with TBSC and then blocked with TBSC containing 2% bovine serum albumin (BSA). RAP ligands were then incubated with the immobilized receptor at a range of concentrations for 2 hours in the above blocking buffer supplemented with 0.05% Tween-20 at room temperature. Control wells contained no added ligand. As an additional control, to determine whether the absence of calcium affected binding, 10 mM EGTA was included in the incubation medium for some samples. Wells were washed with TBSTC and bound ligands detected with polyclonal anti-RAP (BP41/42, 1:1,000, BioMarin). Excess primary antibody was removed and wells washed before incubation with the secondary antibody, HRP-conjugated goat anti rabbit IgG (Bio-Rad). After washing, TMB substrate solutions (Bio-Rad) were added to detect HRP. Color development was stopped with 1N HCl. Absorption at 450 nm was measured with a microplate spectrophotometer (Molecular Devices). Data were plotted and Kd values derived by non-linear regression with the assumption of single-site binding (GraphPad Prism).
From the large number of CR pairs with unique combinations of amino acids at A, C, A′ and C′ within the calcium-binding loop of each CR, CR pairs or triplets were selected to test their binding to RAP d3 (FIG. 2). An additional pair derived from the FDC-8D6 protein was tested, designated 8D6 CR12, having the sequence ([…]) (SEQ ID NO: 91). […]

[1] = biological target: T2, LRP2 CR89 Y1042W R1088D (WVWD) (Homo sapiens, UniProt P98164, R1089D/Y1043W); experiment: Solid phase binding assay, LRP2 CR89 mutant
T2 construct: two CR pairs from LRP2 (CR89, CR3435); made in house; host or cells: E. coli BL21(DE3) CodonPlus-RIPL, pET30(+)a
T2 sequence (P98164 1025-1102 Y1043W/R1089D): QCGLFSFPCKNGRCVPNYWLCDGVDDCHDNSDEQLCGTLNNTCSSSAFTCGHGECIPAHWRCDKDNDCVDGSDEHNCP
Description: (§2) Each amplified fragment was sequentially digested with BamHI and HindIII and then ligated into similarly digested pET30(+)a. The resulting plasmids encode proteins consisting of N-terminal hexahistidine and S-peptides fused to the CR fragment. Ligation reactions were transformed into XL-Blue MRF′ (Stratagene) by electroporation and plasmids isolated from single colonies. Three mutations, […], V1047D and R1088D, were introduced into the LRP2 CR89 expression plasmid both singly and in combination using Stratagene QuikChange II XL reagents and the primers: […]
as §1
(§3) One premise of this work was that amino acids at A, C, A′ and C′ within the calcium-binding loops of a CR pair were key determinants of binding affinity for RAP and would be similarly important for binding of RAP variants. To test this idea, mutant LRP2 CR89 were prepared in which the native, non-canonical residues at these positions were sequentially substituted with the non-native, canonical residues. As defined above, the A, C, A′, C′ string for LRP2 CR89 is YVWR. Mutants included LRP2 CR89 Y1042W (WVWR), LRP2 CR89 V1047D (YDWR), LRP2 CR89 R1088D (YVWD), LRP2 CR89 V1047D R1088D (YDWD), LRP2 CR89 Y1042W V1047D R1088D (WDWD), LRP2 CR89 Y1042W V1047D (WDWR), LRP2 CR89 Y1042W R1088D (WVWD). Binding to both RAP d3 and MegaRAP1 d3 were measured for each LRP2 CR89 mutant by solid-phase assay. Only the YVWD mutant retained significant binding to MegaRAP1 d3, with an approximate 2-fold loss of affinity relative to LRP2 CR89 (FIG. 6 and Table 3). […] The A′ position in LRP2 CR89 is a tryptophan, the canonical residue for wild-type RAP d3 binding, and was not mutated in our studies.

[2] = biological target: T3, LRP2 CR89 Y1042W V1047D R1088D (WDWD) (Homo sapiens, UniProt P98164, R1089D/V1048D/Y1043W); experiment: Solid phase binding assay, LRP2 CR89 mutant
T3 construct: two CR pairs from LRP2 (CR89, CR3435); made in house; host or cells: E. coli BL21(DE3) CodonPlus-RIPL, pET30(+)a
T3 sequence (P98164 1022-1105 Y1043W/V1048D/R1089D): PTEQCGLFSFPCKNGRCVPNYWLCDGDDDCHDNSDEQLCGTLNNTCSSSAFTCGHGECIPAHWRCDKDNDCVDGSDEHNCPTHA
Description: as §2, §1, §3

T1 sequence (Q07954 852-973): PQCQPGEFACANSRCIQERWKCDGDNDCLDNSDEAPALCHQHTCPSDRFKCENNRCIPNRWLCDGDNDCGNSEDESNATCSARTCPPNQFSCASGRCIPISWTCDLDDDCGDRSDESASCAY

| binding at 80 nM (in words) (LRP1 CR3-5; 80 nM ligand, FIG. 7) | binding (in words) [1] | binding (in words) [2] | binding to LRP1 CR3-5 (in words) (LRP1 CR3-5; solid-phase assay) | Molecule |
| --- | --- | --- | --- | --- |
| only bound to LRP1 CR3-5 | small increase in binding | small increase in binding |  | RAP d3: third domain of human RAP, amino acids 201-319 of mature RAP, bacterially expressed with hexahistidine and S-peptide tags (SEQ ID NO: 92) (protein, listed as Homo sapiens, hexahistidine and S-peptide tags) LDRLRRVSHQGYSTEAEFEEPRVIDLWDLEQSANLTDKELEAFREELKHFEAKIEKHNHYQKQLEIAHEKLRHAESVGDGERVSRSREKHALLEGRTKELGYTVKKHLQDLSGRISRAR |
|  | failed to bind measurably | failed to bind measurably | no significant affinity | MegaRAP1 d3: d3 of RAP variant selected on LRP2 CR89: S213T, E217K, H249Y, E251K, K256A, K270E (SEQ ID NO: 93) (protein, listed as Homo sapiens) LDRLRRVSHQGYSTEAEFEEPRVIDLWDLEQSANLTDKELEAFREELKHFKAKIEAHNHYQKQLEIAHEDLRHAESVGDGERVSRSREKHALLEGRTKELGYTVKKHLQDLSGRISRAR |

Source: patent publication US8440629B2, “Cyclic receptor-associated protein (RAP) peptides” (Raptor Pharmaceuticals Inc., priority 2007, dated 2013)
